# Laboratory results taken from patent US20250197889A1.
# Target: humanized Nme2Cas9 expressed in HEK293T cells from a plasmid (Neisseria meningitidis strain De11444 (also printed De10444))
# Assay: cell-based or functional assay
substance,measurement,value
AcrIIC4Hpa,fold decrease in genome editing in HEK293T cells at various ratios of Acr to Cas9 plasmid,4 fold
